Format in all cases: cell-based
One assay concerns E. coli K12. Briefly: microbe, parasite or virus in culture. The note with it: Escherichia coli, K12, 2 h, read-out: toxic dose (concentration of compound that decreased growth by half).
For the next assay, the system named is E. coli K12 wild type. Briefly: Survival test in 1-hexene saturated atmosphere on over-production of AcrA, AcrB and TolC. The note with it: FIG. 3.
A further assay concerns E. coli K12 ΔacrAB. The assay is described as follows: Survival assay on agar plate in olefin saturated atmosphere, strains producing AcrAB or AcrB variants. The note with it: 1-hexene saturated atmosphere; for tolerance to 1-hexene relative to wild type AcrB sequence: single mutation AcrB variants, FIG. 4A. The protocol: FIG. 2: impact of AcrAB production on growth, in presence of styrene 1-hexene, 1-octene and 1-nonene on cell growth. A: Different concentrations of styrene were added to an OD600=0.2 culture of E. coli K12 ΔacrAB containing the pABc (white) or the control plasmid p0c (black). OD density was monitored after 2 hours of growth at 37° C. The bars represent standard deviation between duplicates. B: A survival test in presence of 1-hexene, 1-octene, or 1-nonene saturated atmosphere was performed. Six different dilutions of cultures (10 cells to 10^7 cells, left to right on the figure) were spotted in triplicate on an agar plates. Plates were then exposed to the aforementioned chemicals.
FIG. 4: Impact of beneficial mutations on AcrB on tolerance to 1-hexene, A: Survival test of E. coli strain producing either the AcrB wild type or variants in a 1-hexene saturated atmosphere was performed. Two dilutions of cultures (Dilution 1: 10^5 cells and Dilution 2: 10^4 cells) were spotted in triplicate on an agar plate. B: Localization of the 6 beneficial mutations represented on the structure of a single monomer of AcrB or C: on the structure of the AcrB trimer.
FIG. 6: Impact of beneficial mutations on AcrB on tolerance to 1-hexene. A: Survival test of E. coli strain producing either the AcrB Wild type or variants with 1, 2 or several beneficial mutations, in an 1-hexene saturated atmosphere was performed. Two dilutions of cultures (Dilution 2: 10^4 cells and Dilution 3: 10^3 cells) were spotted in triplicate on an agar plate. B: Soluble fraction of total proteins from a culture of strains producing either the wild type, either the variant F617L, either the variant 6 (A279T, Q584R, F617L) were analyzed by western blot using anti-His antibody.
For agar plate based assays, cells were first streaked overnight and few colonies were used to inoculate a preculture of 6 mL of LB-Cm with glucose (2 g/L) and arabinose (5 mM). At OD60=1 at 37° C., the cultures were used to prepare a dilution series. Dilution 0 (D0) corresponds to the OD600, =1, and contains ˜10^9 cells/mL. Dilution 1 (D1) is a 10-fold dilution of D0, dilution 2 (D2) a 10-fold dilution of D1 up to dilution 5 (D5), which contains ˜10^4 cells/mL. 10 μL of each dilution was spotted in triplicate on LB-agar plates (single well plates, Thermo Scientific, Waltham, Mass.) containing 30 mL of LB-agar, Cm (30 mg/L), glucose (2 g/L) and arabinose (5 mM). Small containers (microfuge tube lids) were placed on the open lid of the agar plate and filled with 400 to 600 μL of 1-hexene or 1-octene or with 75 μL of 1-nonene. The agar plates were then inverted over the lid, cells facing the olefin compound, sealed with parafilm, placed in the plastic bag (the original packaging for the petri dishes) and incubated for 2 days at room temperature. For 1-octene, a second condition, via overlaying 2 mL of compound on the top of the agar submerging the cells, was used. TolC overexpression impact was examined using the same method, but in this case, the LB media and the LB-agar were also supplemented with ampicillin (100 mg/L) and IPTG (100 μM). […]

Numbering of substitutions follows the chain as printed. Numbers in names are those of the source. ≈ marks a conversion by molar mass, not a printed value.

The values that follow come from patent US10513713B2, “Modified host cells having tolerance to α-olefins” (priority 2014, dated 2019).

Method for E. coli K12 wild type: Six different dilutions of cultures (10 cells to 10^7 cells, left to right on the picture) were spotted in triplicate on an agar plate.
For agar plate based assays, cells were first streaked overnight and few colonies were used to inoculate a preculture of 6 mL of LB-Cm with glucose (2 g/L) and arabinose (5 mM). At OD60=1 at 37° C., the cultures were used to prepare a dilution series. Dilution 0 (D0) corresponds to the OD600, =1, and contains ˜10^9 cells/mL. Dilution 1 (D1) is a 10-fold dilution of D0, dilution 2 (D2) a 10-fold dilution of D1 up to dilution 5 (D5), which contains ˜10^4 cells/mL. 10 μL of each dilution was spotted in triplicate on LB-agar plates (single well plates, Thermo Scientific, Waltham, Mass.) containing 30 mL of LB-agar, Cm (30 mg/L), glucose (2 g/L) and arabinose (5 mM). […] The agar plates were then inverted over the lid, cells facing the olefin compound, sealed with parafilm, placed in the plastic bag (the original packaging for the petri dishes) and incubated for 2 days at room temperature. For 1-octene, a second condition, via overlaying 2 mL of compound on the top of the agar submerging the cells, was used. TolC overexpression impact was examined using the same method, but in this case, the LB media and the LB-agar were also supplemented with ampicillin (100 mg/L) and IPTG (100 μM).

Take `C=Cc1ccccc1` [styrene]: the IC50 in the assay on E. coli K12 turned out to be 110 µg/mL (≈ 1060 µM). On to “acrA and acrB and TolC: E. coli tripartite RND efflux pump AcrAB-TolC, over-expressed from pABc and pTolCa”, for which the “tolerance to 1-hexene on over-expression in the wild type strain” value in the assay on E. coli K12 wild type is recorded as “increased tolerance”. For `C=CCCCC` [1-hexene], in the assay on E. coli K12, the IC50 came out at 65 µg/mL (≈ 772 µM).

B1: TolC: outer membrane protein TolC encoded on plasmid pTolCa (protein, UniProt P02930 23-493, looked up)
Outer membrane protein TolC: ENLMQVYQQARLSNPELRKSAADRDAAFEKINEARSPLLPQLGLGADYTYSNGYRDANGINSNATSASLQLTQSIFDMSKWRALTLQEKAAGIQDVTYQTDQQTLILNTATAYFNVLNAIDVLSYTQAQKEAIYRQLDQTTQRFNVGLVAITDVQNARAQYDTVLANEVTARNNLDNAVEQLRQITGNYYPELAALNVENFKTDKPQPVNALLKEAEKRNLSLLQARLSQDLAREQIRQAQDGHLPTLDLTASTGISDTSYSGSKTRGAAGTQYDDSNMGQNKVGLSFSLPIYQGGMVNSQVKQAQYNFVGASEQLESAHRSVVQTVRSSFNNINASISSINAYKQAVVSAQSSLDAMEAGYSVGTRTIVDVLDATTTLYNAKQELANARYNYLINQLNIKSALGTLNEQDLLALNNALSKPVSTNPENVAPQTPEQNAIADGYAPDSPAPVVQQTSARTTTSNGHNPFRN
Turning to B1, the “tolerance to 1-hexene on over-expression in the wild type strain” value with E. coli K12 wild type is on record as “does not improve the survival”.

B2: A279T: E. coli AcrB (SEQ ID NO:1) variant with amino acid mutation A279T (protein)
chain: MPNFFIDRPIFAWVIAIIIMLAGGLAILKLPVAQYPTIAPPAVTISASYPGADAKTVQDTVTQVIEQNMNGIDNLMYMSSNSDSTGTVQITLTFESGTDADIAQVQVQNKLQLAMPLLPQEVQQQGVSVEKSSSSFLMVVGVINTDGTMTQEDISDYVAANMKDAISRTSGVGDVQLFGSQYAMRIWMNPNELNKFQLTPVDVITAIKAQNAQVAAGQLGGTPPVKGQQLNASIIAQTRLTSTEEFGKILLKVNQDGSRVLLRDVAKIELGGENYDIITEFNGQPASGLGIKLATGANALDTAAAIRAELAKMEPFFPSGLKIVYPYDTTPFVKISIHEVVKTLVEAIILVFLVMYLFLQNFRATLIPTIAVPVVLLGTFAVLAAFGFSINTLTMFGMVLAIGLLVDDAIVVVENVERVMAEEGLPPKEATRKSMGQIQGALVGIAMVLSAVFVPMAFFGGSTGAIYRQFSITIVSAMALSVLVALILTPALCATMLKPIAKGDHGEGKKGFFGWFNRMFEKSTHHYTDSVGGILRSTGRYLVLYLIIVVGMAYLFVRLPSSFLPDEDQGVFMTMVQLPAGATQERTQKVLNEVTHYYLTKEKNNVESVFAVNGFGFAGRGQNTGIAFVSLKDWADRPGEENKVEAITMRATRAFSQIKDAMVFAFNLPAIVELGTATGFDFELIDQAGLGHEKLTQARNQLLAEAAKHPDMLTSVRPNGLEDTPQFKIDIDQEKAQALGVSINDINTTLGAAWGGSYVNDFIDRGRVKKVYVMSEAKYRMLPDDIGDWYVRAADGQMVPFSAFSSSRWEYGSPRLERYNGLPSMEILGQAAPGKSTGEAMELMEQLASKLPTGVGYDWTGMSYQERLSGNQAPSLYAISLIVVFLCLAALYESWSIPFSVMLVVPLGVIGALLAATFRGLTNDVYFQVGLLTTIGLSAKNAILIVEFAKDLMDKEGKGLIEATLDAVRMRLRPILMTSLAFILGVMPLVISTGAGSGAQNAVGTGVMGGMVTATVLAIFFVPVFFVVVRRRFSRKNEDIEHSHTVDHH
modifications: E. coli
As to B2, in the assay with E. coli K12 ΔacrAB, the “efficiency among the beneficial mutations” value is reported as “more efficient” and the “tolerance to 1-hexene relative to wild type AcrB sequence” value is reported as “improvement in tolerance”.

B3: L822P: E. coli AcrB (SEQ ID NO:1) variant with amino acid mutation L822P (protein)
chain: B2 chain with T279A, L822P
modifications: E. coli
Consider B3, for which, in the assay on E. coli K12 ΔacrAB, the “efficiency among the beneficial mutations” value is on record as “more efficient” and the “tolerance to 1-hexene relative to wild type AcrB sequence” value is recorded as “improvement in tolerance”.

B4: F1033Y: E. coli AcrB (SEQ ID NO:1) variant with amino acid mutation F1033Y (protein)
chain: B2 chain with T279A, F1033Y
modifications: E. coli
As for B4, the “tolerance to 1-hexene relative to wild type AcrB sequence” value in the assay with E. coli K12 ΔacrAB is “improvement in tolerance”.

B5: F927S: E. coli AcrB (SEQ ID NO:1) variant with amino acid mutation F927S (protein)
chain: B2 chain with T279A, F927S
modifications: E. coli
As to B5, the “tolerance to 1-hexene relative to wild type AcrB sequence” value in the assay on E. coli K12 ΔacrAB is given as “improvement in tolerance”.

B6: F617L: E. coli AcrB (SEQ ID NO:1) variant with amino acid mutation F617L (protein)
chain: B2 chain with T279A, F617L
modifications: E. coli
Turning to B6, in the assay on E. coli K12 ΔacrAB, the “efficiency among the beneficial mutations” value is recorded as “more efficient” and the “tolerance to 1-hexene relative to wild type AcrB sequence” value is listed as “improvement in tolerance”.
